Reference: patent publication US20100291074

What was measured:
[1] = molecular target: Aβ42 (aggregation state not stated at the place of use) (UniProt P05067)
[2] = molecular target: Aβ (amyloid beta peptide, length and aggregation state not specified; ˜4 kDa band) (UniProt P05067)
Aβ (amyloid beta peptide, length and aggregation state not specified; ˜4 kDa band), sequence (P05067 whole entry, looked up, tested part not stated): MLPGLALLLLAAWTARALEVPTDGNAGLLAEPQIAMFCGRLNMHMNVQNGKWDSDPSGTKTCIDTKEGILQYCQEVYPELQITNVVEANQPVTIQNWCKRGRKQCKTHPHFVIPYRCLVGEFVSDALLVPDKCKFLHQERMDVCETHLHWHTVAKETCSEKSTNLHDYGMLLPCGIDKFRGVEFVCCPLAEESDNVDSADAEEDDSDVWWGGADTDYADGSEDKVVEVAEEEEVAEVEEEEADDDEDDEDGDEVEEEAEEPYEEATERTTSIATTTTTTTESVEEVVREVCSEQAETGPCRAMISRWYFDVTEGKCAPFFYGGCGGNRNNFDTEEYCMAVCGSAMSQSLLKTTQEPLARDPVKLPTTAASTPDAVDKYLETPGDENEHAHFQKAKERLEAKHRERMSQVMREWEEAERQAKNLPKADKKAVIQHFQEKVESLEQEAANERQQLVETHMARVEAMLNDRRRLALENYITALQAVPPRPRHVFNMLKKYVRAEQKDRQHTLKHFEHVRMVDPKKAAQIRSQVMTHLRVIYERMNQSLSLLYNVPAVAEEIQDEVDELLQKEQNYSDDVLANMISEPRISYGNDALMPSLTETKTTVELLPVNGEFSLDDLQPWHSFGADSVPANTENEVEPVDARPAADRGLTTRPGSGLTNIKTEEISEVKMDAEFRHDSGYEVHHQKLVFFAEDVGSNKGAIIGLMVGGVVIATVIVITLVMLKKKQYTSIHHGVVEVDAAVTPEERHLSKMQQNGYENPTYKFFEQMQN

mouse CypD, endogenous, in brain mitochondria and cultured cortical neurons of nonTg and Tg mAPP mice, sequence (chain, as listed by the source): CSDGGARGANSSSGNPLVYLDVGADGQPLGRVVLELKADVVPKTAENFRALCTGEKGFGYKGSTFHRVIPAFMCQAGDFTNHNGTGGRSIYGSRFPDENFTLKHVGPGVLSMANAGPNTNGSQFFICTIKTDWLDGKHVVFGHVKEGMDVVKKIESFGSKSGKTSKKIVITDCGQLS
Aβ42 (aggregation state not stated at the place of use), sequence (P05067 whole entry, looked up): as the sequence (P05067 whole entry, looked up, tested part not stated) above

For “mouse CypD, endogenous, in brain mitochondria and cultured cortical neurons of nonTg and Tg mAPP mice”, which “Aβ-mediated swelling of isolated cortical mitochondria, diminished in mitochondria lacking CypD, Aβ 1.6 µM” value [1] is on record?
Its value is “˜60%”.

What about the “cytochrome c release into the supernatant from isolated mitochondria treated with Aβ” value [2] of the same substance?
The value was “increased levels of cytochrome c release into the supernatant in nonTg-derived mitochondria treated with Aβ”.
